One data set has as its target T1, Gbp2 RRM123 (Saccharomyces cerevisiae, UniProt P25555 122-427).
T1 sequence: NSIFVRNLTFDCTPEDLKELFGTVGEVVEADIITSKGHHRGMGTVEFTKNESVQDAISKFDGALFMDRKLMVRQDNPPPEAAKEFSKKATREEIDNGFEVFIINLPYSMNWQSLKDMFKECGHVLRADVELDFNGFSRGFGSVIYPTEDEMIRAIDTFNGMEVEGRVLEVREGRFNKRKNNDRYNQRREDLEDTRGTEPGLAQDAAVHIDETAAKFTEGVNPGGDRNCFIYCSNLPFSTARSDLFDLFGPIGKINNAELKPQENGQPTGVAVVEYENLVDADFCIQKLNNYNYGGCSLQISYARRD
Briefly: fluorescence anisotropy. In general terms: Polarisation of emitted light reports the rotation of a fluorescent probe.

The target of a further data set is T2, Hrb1 RRM2 (Saccharomyces cerevisiae, UniProt P38922 261-338).
T2 sequence: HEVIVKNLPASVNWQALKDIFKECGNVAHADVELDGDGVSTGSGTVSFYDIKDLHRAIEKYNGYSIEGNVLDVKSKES
The experiment in a line: fluorescence EMSA.

Data set [1] concerns the target T3, Gbp2 RRM3 (Saccharomyces cerevisiae, UniProt P25555 330-427).
T3 sequence: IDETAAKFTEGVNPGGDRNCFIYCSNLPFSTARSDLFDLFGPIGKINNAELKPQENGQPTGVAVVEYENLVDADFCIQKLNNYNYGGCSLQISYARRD
The experiment in a line: fluorescence anisotropy.

In another data set the target is T4, Gbp2 RRM12 (Saccharomyces cerevisiae, UniProt P25555 122-316).
T4 sequence: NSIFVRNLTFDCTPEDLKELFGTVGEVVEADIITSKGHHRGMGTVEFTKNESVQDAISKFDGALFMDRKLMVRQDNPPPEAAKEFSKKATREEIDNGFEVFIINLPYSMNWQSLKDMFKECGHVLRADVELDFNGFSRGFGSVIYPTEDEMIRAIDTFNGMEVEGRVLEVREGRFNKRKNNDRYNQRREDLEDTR
The experiment in a line: fluorescence anisotropy.

The target in a further data set is T5, Gbp2 RRM2 (Saccharomyces cerevisiae, UniProt P25555 219-316).
T5 sequence: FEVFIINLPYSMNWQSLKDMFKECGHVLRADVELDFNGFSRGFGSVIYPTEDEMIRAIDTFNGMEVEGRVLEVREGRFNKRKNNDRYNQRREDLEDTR
The experiment in a line: fluorescence anisotropy.

The target of data set [2] is T3, Gbp2 RRM3. The experiment in a line: NMR HSQC titration.

What is called Kd is the equilibrium constant for the complex coming apart. A higher Kd goes with lower affinity.

B1: TG-43 (ssDNA)
DNA: GTGGTGGGTGGGTGTGTGTGGGTGTGGTGGGTGTGTGGGTGTG
The molecule B1 had a Kd with Gbp2 RRM123 of around 0.059 µM. For the same molecule, in the data set with Hrb1 RRM2, the binding result is reported as “no binding”.

B2: Selex RNA UUGGUGUU (ssRNA)
RNA: UUGGUGUU
As for B2, in the data set with Gbp2 RRM3 [1], the binding result is listed as “no binding”. Further, the dissociation constant (Kd) with Gbp2 RRM12 came to 5.5 ± 0.7 µM; in the data set with Gbp2 RRM2, 54 ± 4 µM; in the data set with Gbp2 RRM123, 3.3 ± 0.8 µM.

B3: U12 (ssRNA)
RNA: UUUUUUUUUUUU
As to B3, the binding result in the data set with Gbp2 RRM3 [2] was “no binding”.

B4: A12 (ssRNA)
RNA: AAAAAAAAAAAA
As to B4, the binding result in the data set with Gbp2 RRM3 [2] was “no binding”.

B5: d(TTGGTGTT) (ssDNA)
DNA: TTGGTGTT
As to B5, in the data set with Gbp2 RRM3 [1], the binding result is “no binding”. In addition, the Kd came to 24 ± 2 µM in the data set with Gbp2 RRM12, 310 ± 90 µM with Gbp2 RRM2 and 17 ± 2 µM in the data set with Gbp2 RRM123.

These data come from paper PMC4705658.
